B1: TPR t1 (parent)
chain: GACCAAUCUGCCCUCAGAGCUCGAGAACAUCUUCGGAUGCAGAGGAGGCAGGCUUCGGUGGCGCGAUAGCGCCAACGUCCUCAACCUCCAAUGCAUCCCACCACAUGAUGAUGCCUGAAGAGCCUUGGUUUUUUG

Variants of: B1
Test: polymerase ribozyme fitness, log enrichment relative to wild type (log ratio); higher = more active; in vitro selection for triplet polymerase activity
How it was run: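 Fitness measures genotype enrichment against wild-type enrichment on a logarithmic scale, with inverse-variance-weighted averaging of replicates. The logarithm is base 2, and genotypes were kept only with ≥10 input reads and ≥1 read per output in Illumina sequencing. The sequenced libraries came from one triplicate in vitro selection round, including frozen incubation at −7 °C, of PCR-built, transcribed mutant libraries of each subunit of a heterodimeric triplet polymerase ribozyme.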

Variant | polymerase ribozyme fitness (log ratio)
G51U C64A G69C | -3.5
C53G C72A U112G G113C | -7.66
G51C G61U C114U | -6.08
C53G C56G C82G C85A C94G | -2.28
G52C G58A C79A C85U | -2.78
G51A C73G C124U | -1.14
G52C G61C C114G G120U | -5.46
C53A C56A G58C A68U C80A | -6.56
A50U U125G G127C | -3.43
G52U U109C A118U | -6.47
A50U U106A | -0.951
A50G U78G | 0.0351
C53G U116C | -1.68
G52U G63U | -0.651
C53U C70U A74G G113C | -4.41
C53U C64U | -0.276
C53A G120U G122C U125A | -0.563
G52A G60U | -2.42
G52U G61C U130G | -1.58
C53A A100G G113A G120C | -4.41
G51U G110A | -5.3

Variant | polymerase ribozyme fitness (log ratio)
G52C C123G | 0.381
G51A G93A | -3.45
G51A G93U | -4.23
G52C G61A C62U C85U U96G G117A | -4.79
G52A C56G U96G | -1.35
C53A G120C | 0.974
A50U C64U C70U | -5.2
G51A C56U G93U | -3.4
G52A G57A A66U G127C | -3.31
G52A G57A G127C | -2.09
A50U U112A C124U G128C | -4
C53G G120A G127U | -0.0103
G52A A95C G113C | -3.3
G52C U116A G120A | -2.46
G51C C56A G77U U78A | -3.51
C53G A90G | 0.537
G51U C80U C88A A119G | -1.11
A50C U130A | -0.352
G51A C62A U116G C124A | -5.64
C53U C73G G113C | -4.51
G52A U55A A74U G120C C123A C124U G135A | -0.0228

Variant | polymerase ribozyme fitness (log ratio)
G51U G120C U133G | -1.86
G51C C62U U112C | -2.27
G52U G63A G120U | -1.08
C53A A105U | -2.72
C53A U112A | 0.632
G51U G60U G69C C73G | -4.99
G52A C76U | -0.303
G52U G57U G128C | -4.79
C53G C64U G127U | -1.02
A50G C62U G69U C80A | -3.77
G51A G60A A84G G120U | -2.9
C53G C70G C104U C114U G120U C123G C124A | -6.46
A50U C76A C82U | -1.67
G51U C97U U132A | -2.51
A50U G51C C73U | -3.52
G51A A68C C79G C80G A84C C124G G128C | -7.23
G52A U55A G120C C123A C124U G135A | 1.07
G51U C53U | -2.7
G52U G93U | -1.93
C53A G61U C82G A84G | -0.925
G51A G71A | -4.53

Variant | polymerase ribozyme fitness (log ratio)
C53A C73A | -0.0116
C53A G63A U78C | -2.46
G51U C73A G117A | -4.4
G51A G60A C124G | -1.16
C53A C72G U92G | -2.94
G52U G58A C79G C85A G107U G113A | -6.66
A50U G113A | -2.01
A50U G113U | -2.75
G52U A66U | -1.95
G51U C82A A95C C124U | -4.21
G52C G58A | -1.15
G52A C70U | -0.605
G52A C53A G77A A84U G122A | -2.24
C53G C62A C70U U78G | -2.63
C53A C85G | -1.17
G52U U112A U126G | -0.97
G52C C72A C94U G128A | -2.33
G51U A91G | -5.12
G51U U59G G63C G77C C80U U87C C124G U131G | -0.602
G51C C72A U129G | -4.58

Reference: the RNAGym collection of RNA variant scans (doi:10.1073/pnas.2313332121)
